Here are results for 50 sequences from the supplement of paper PMC9112550, “Optimization of the antimicrobial peptide Bac7 by deep mutational scanning” (BMC Biology, 2022).

This data set deals with Escherichia coli TOP10. The data set is described as follows: shrunken log2 fold change of peptide-encoding DNA abundance (4.5 h post-induction vs induction); higher = less antimicrobial activity (less host growth inhibition). The settings on record: time post-induction: 4.5 h; library: site-saturation at positions 5, 18, 19, 20.
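Also: peptides expressed intracellularly from a pBAD plasmid library in pooled LB shake-flask culture, induced with 0.3% L-arabinose, DNA abundance read by NGS, three biological replicates, DESeq2 with apeglm shrinkage.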

In the case of RRIRIRPPRLPRPRPRPIHQPRP, the “shrunken log2 fold change” value was -1.14.

As to RRIRERPPRLPRPRPRPLWPPRP, the “shrunken log2 fold change” value amounted to 0.0539.

RRIRTRPPRLPRPRPRPCKCPRP: the “shrunken log2 fold change” value is -1.16.

Regarding RRIRNRPPRLPRPRPRPAENPRP, the “shrunken log2 fold change” value is -0.0634.

Consider RRIRVRPPRLPRPRPRPFLEPRP, for which the “shrunken log2 fold change” value worked out at 0.0733.

Regarding RRIRERPPRLPRPRPRPTYRPRP, the “shrunken log2 fold change” value is -0.0372.

For the sequence RRIRYRPPRLPRPRPRPWNPPRP, the “shrunken log2 fold change” value is -0.00498.

With RRIRSRPPRLPRPRPRPGDVPRP, the “shrunken log2 fold change” value was determined as 0.204.

For the sequence RRIRPRPPRLPRPRPRPFTLPRP, the “shrunken log2 fold change” value was -0.379.

With RRIRIRPPRLPRPRPRPVLVPRP, the “shrunken log2 fold change” value came out at 0.0259.

On to RRIRARPPRLPRPRPRPSHHPRP, for which the “shrunken log2 fold change” value is -0.309.

Regarding RRIRYRPPRLPRPRPRPDMTPRP, the “shrunken log2 fold change” value is -0.149.

Take RRIRNRPPRLPRPRPRPTTRPRP: the “shrunken log2 fold change” value stood at 0.0475.

With RRIRFRPPRLPRPRPRPTSIPRP, the “shrunken log2 fold change” value is -0.296.

For the sequence RRIRQRPPRLPRPRPRPRSYPRP, the “shrunken log2 fold change” value is -0.286.

As to RRIRKRPPRLPRPRPRPFIQPRP, the “shrunken log2 fold change” value is 0.0388.

In the case of RRIRPRPPRLPRPRPRPGTNPRP, the “shrunken log2 fold change” value was determined as 1.46.

Take RRIRFRPPRLPRPRPRPRFEPRP: the “shrunken log2 fold change” value came out at 0.162.

For RRIRYRPPRLPRPRPRPRHCPRP, the “shrunken log2 fold change” value was -0.251.

As to RRIRNRPPRLPRPRPRPMHCPRP, the “shrunken log2 fold change” value is -0.0148.

On to RRIRARPPRLPRPRPRPCWTPRP, for which the “shrunken log2 fold change” value is 0.01.

Take RRIRHRPPRLPRPRPRPRDMPRP: the “shrunken log2 fold change” value turned out to be 0.137.

On to RRIRVRPPRLPRPRPRPEVRPRP, for which the “shrunken log2 fold change” value is 0.0429.

Turning to RRIRKRPPRLPRPRPRPESAPRP, the “shrunken log2 fold change” value was 1.72.

Turning to RRIRIRPPRLPRPRPRPRYSPRP, the “shrunken log2 fold change” value was -0.484.

Regarding RRIRVRPPRLPRPRPRPREIPRP, the “shrunken log2 fold change” value came to 0.087.

As to RRIRPRPPRLPRPRPRPFFAPRP, the “shrunken log2 fold change” value is 0.468.

Turning to RRIRGRPPRLPRPRPRPWATPRP, the “shrunken log2 fold change” value is 0.959.

As to RRIRCRPPRLPRPRPRPIRKPRP, the “shrunken log2 fold change” value was -0.126.

On to RRIRMRPPRLPRPRPRPVLLPRP, for which the “shrunken log2 fold change” value was 0.291.

On to RRIRGRPPRLPRPRPRPVRLPRP, for which the “shrunken log2 fold change” value worked out at 0.525.

On to RRIRKRPPRLPRPRPRPKLEPRP, for which the “shrunken log2 fold change” value is -0.0306.

On to RRIRYRPPRLPRPRPRPSIWPRP, for which the “shrunken log2 fold change” value was -1.31.

As to RRIRCRPPRLPRPRPRPISAPRP, the “shrunken log2 fold change” value was -0.142.

Take RRIRNRPPRLPRPRPRPQTFPRP: the “shrunken log2 fold change” value is -0.0594.

Take RRIRWRPPRLPRPRPRPSQKPRP: the “shrunken log2 fold change” value is -0.0621.

Consider RRIRRRPPRLPRPRPRPNPFPRP, for which the “shrunken log2 fold change” value was found to be 0.125.

Take RRIRQRPPRLPRPRPRPIFAPRP: the “shrunken log2 fold change” value turned out to be 0.146.

Consider RRIRRRPPRLPRPRPRPLILPRP, for which the “shrunken log2 fold change” value is 0.0353.

For RRIRKRPPRLPRPRPRPCHIPRP, the “shrunken log2 fold change” value was -0.00879.

RRIRDRPPRLPRPRPRPMERPRP: the “shrunken log2 fold change” value is -0.0122.

As to RRIRQRPPRLPRPRPRPQFKPRP, the “shrunken log2 fold change” value is -0.0321.

For RRIRGRPPRLPRPRPRPMAEPRP, the “shrunken log2 fold change” value is 1.73.

With RRIRLRPPRLPRPRPRPVEHPRP, the “shrunken log2 fold change” value is -0.174.

In the case of RRIRWRPPRLPRPRPRPWAQPRP, the “shrunken log2 fold change” value was -0.381.

In the case of RRIRYRPPRLPRPRPRPGNAPRP, the “shrunken log2 fold change” value stood at 0.0744.

For RRIRPRPPRLPRPRPRPKWYPRP, the “shrunken log2 fold change” value was -0.161.

Turning to RRIRDRPPRLPRPRPRPVNAPRP, the “shrunken log2 fold change” value turned out to be 0.188.

Regarding RRIRWRPPRLPRPRPRPMGPPRP, the “shrunken log2 fold change” value came out at 0.041.

As for RRIRCRPPRLPRPRPRPHNLPRP, the “shrunken log2 fold change” value is -0.592.
